Like-named read-outs stand apart in the source and are kept apart here.
T1: cynomolgus monkey PCSK9 (cynomolgus monkey, UniProt A0A7N9D9N8 150-747)
T1 chain: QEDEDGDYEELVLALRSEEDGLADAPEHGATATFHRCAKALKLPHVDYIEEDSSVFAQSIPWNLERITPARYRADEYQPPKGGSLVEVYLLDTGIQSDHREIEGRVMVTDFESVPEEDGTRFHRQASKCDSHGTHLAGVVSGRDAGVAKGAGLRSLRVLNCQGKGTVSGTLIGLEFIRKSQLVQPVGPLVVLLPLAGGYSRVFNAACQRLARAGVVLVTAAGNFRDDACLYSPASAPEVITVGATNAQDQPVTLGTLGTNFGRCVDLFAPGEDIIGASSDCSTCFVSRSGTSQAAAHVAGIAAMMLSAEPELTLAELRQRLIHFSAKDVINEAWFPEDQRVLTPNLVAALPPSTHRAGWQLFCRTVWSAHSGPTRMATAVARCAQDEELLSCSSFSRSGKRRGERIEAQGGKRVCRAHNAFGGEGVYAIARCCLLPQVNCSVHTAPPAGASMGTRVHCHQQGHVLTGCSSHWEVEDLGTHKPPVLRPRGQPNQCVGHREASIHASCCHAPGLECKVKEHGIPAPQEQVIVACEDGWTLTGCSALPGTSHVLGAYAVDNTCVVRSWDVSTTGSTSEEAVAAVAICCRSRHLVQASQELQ


What was measured:
[1] = biological target: T2, human Proprotein Convertase Subtilisin-like/Kexin type 9 (UniProt Q8NBP7 31-692); assay: ELISA
Target sequence in this assay (Q8NBP7 31-692): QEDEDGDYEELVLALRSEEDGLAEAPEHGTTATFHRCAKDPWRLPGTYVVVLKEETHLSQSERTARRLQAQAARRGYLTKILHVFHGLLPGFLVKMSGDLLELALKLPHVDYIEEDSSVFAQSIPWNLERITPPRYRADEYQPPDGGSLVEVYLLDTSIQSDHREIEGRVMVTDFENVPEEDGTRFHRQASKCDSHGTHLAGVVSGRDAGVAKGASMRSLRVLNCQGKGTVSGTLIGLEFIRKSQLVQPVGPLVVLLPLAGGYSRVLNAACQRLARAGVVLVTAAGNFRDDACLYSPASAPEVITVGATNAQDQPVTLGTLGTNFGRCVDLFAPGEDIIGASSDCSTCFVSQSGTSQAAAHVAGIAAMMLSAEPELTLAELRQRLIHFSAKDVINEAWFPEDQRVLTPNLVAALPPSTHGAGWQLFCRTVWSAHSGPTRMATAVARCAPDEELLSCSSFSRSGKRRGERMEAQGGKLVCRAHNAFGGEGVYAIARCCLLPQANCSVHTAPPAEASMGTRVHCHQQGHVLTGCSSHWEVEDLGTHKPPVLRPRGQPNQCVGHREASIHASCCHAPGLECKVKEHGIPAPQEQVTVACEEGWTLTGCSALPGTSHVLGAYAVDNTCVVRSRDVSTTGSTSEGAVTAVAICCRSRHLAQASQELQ

cynomolgus monkey PCSK9 [2] = biological target: T1, cynomolgus monkey PCSK9; assay: ELISA
[3] = biological target: T2, human Proprotein Convertase …; assay: ELISA; remark: listed apart in the source
[4] = biological target: T2, human Proprotein Convertase …; assay: PCSK9-LDLR blocking ELISA
[5] = biological target: T2, human Proprotein Convertase …; assay: ELISA; remark: listed apart in the source
[6] = biological target: T2, human Proprotein Convertase …; assay: ELISA; remark: listed apart in the source
cynomolgus monkey PCSK9 [7] = biological target: T1, cynomolgus monkey PCSK9; assay: ELISA

EC50 [1] | EC50 (cynomolgus monkey PCSK9 [2]) | Binder | other results
0.0874 nM | 0.106 nM | Ab8 (antibody, V domains shown) VH: QEQLVESGGGLVQPEGSLTLTCTASGFSFTSDYYMCWVRQAPGKGLEWIGCISTGDGSTYYASWAKGRFTISKPSSTTVTLQMTRLTAADTATYFCARDRYYSYAYGAYVYASDLWGPGTLVTVSS VL: DIVMTQTPASVSEPVGGTVTINCQASESIRNYLSWYQQKPGQRPKLLIYGASTLASGVPSRFKGSGSGTDFTLTISDLECADAATYYCQSNYGISSRSYVNGFGGGTEVVVKR | 
0.117 nM | 0.112 nM | Ab6 (antibody, V domains shown) VH: QEQLEESGGDLVKPEGSLTLTCTASGFSFSSNYWICWVRQAPGKGLEWIGCIRDGGGTYYASWAKGRLTISMTSSTTVTLQLNSLTAADTATYFCASDINDGWLGQFNLWGPGTLVTVSS VL: DIVMTQTPASVEVAVGGTVTIKCQASQSISAYLAWYQQKPGQPPKLLIYRAYTLASGVPSRFKGSGSGTQFTLTISDLECADAATYYCQSYYSVTTNTYGNTFGGGTEVVVKR | 

Continued, binder first:

Binder | EC50 [1] | EC50 (cynomolgus monkey PCSK9 [2]) | other results
Ab24 (antibody, V domains shown) VH: QSLEESGGDLVKPGASLTLTCKASGFSFSSGYYMCWVRQAPGKGLEWIACIYAGSGGSTFFANWAKGRFTISKTSSTTVTLQMTSLTAADTATYFCARDGGYAGYGYAFFNLWGPGTLVTVSS VL: DVVMTQTPASVSEPVGGTVTIKCQASERIYSGLAWYQQKPGQPPKLLIYGASTLASGVPSRFKGSGSGTDFTLTISDLECDDAAIYYCQATYYGSSYPNVFGGGTEVVVKR |  |  | EC50 [3]: 0.178 nM
Ab23 (antibody, V domains shown) VH: QSLEESGGDLVKPGASLTLTCKASGFSFSSGYYMCWVRQAPGKGLEWIACIYAGSGGSTFFANWAKGRFTISKTSSTTVTLQMTSLTAADTATYFCARDGGYAGYGYAFFNLWGPGTLVTVSS VL: DVVMTQTPASVSEPVGGTVTIKCQASERIYSGLAWYQQKPGQPPKLLIYGASTLASGVPSRFKGSGSGTDFTLTISDLECDDAAIYYCQCTYYGSSYPNVFGGGTEVVVKR |  |  | IC50 [4]: 0.81 nM
Ab22 (antibody, V domains shown) VH: EVQLVESGGGLVQPGGSLRLSCAASGFSLSSYAMNWVRQAPGKGLEWIGAIRSSGATFFASSVNGRFTISRDNSKNTVYLQMNSLRAEDTAVYYCARDTNDGWYINRLDLWGQGTLVTVSS VL: AVLTQSPSTLSASVGDRVTITCQSSKSVYSNYLSWFQQKPGKAPKFLIYKASTLASGVPSRFSGSGSGTEFTLTISSLQPDDFATYYCAGGDTNIADNAFGGGTKVEIKR |  |  | EC50 [5]: 0.0492 nM
Ab9 (antibody, V domains shown) VH: QSVEESGGRLVTPGTPLTLTCTVSGIDLSSYAMGWVRQAPGKGLEYIGIIVSYGPTYYASWAKGRFTISKTSTTVDLKITSPTAEDTATYFCARDLDANSSGYYGCFNIWGQGTLVTVSS VL: AVVLTQTPASVSAAVGGTVTIKCQASQSISTALAWYQQKPGQPPKLLIYAASPLASGVSSRFKSSGSGTEFTLTISDLECADAATYYCQSYYGSSNIAFGGGTELEILR | 0.098 nM |  | 
Ab10 (antibody, V domains shown) VH: QEQLEESGGDLVKPEGSLTLTCTASGFSFSSSYWICWVRQAPGKGLEWIACIRAGGGNYYANWAKGRFTISRTSSTTVTLQMTSLTAADTATYFCASDINDGWLGQFNLWGPGTLVTVSS VL: NIVMTQTPASVEAAVGGTVTIKCQASQSISNYLAWYQQKPGQPPKLLIYRTSTLASGVPSRFKGSGSGTQFTLTISDLECADAATYYCQSYYSVTTVAYGNTFGGGTEVVVKR |  |  | EC50 [6]: 0.126 nM
Ab5 (antibody, V domains shown) VH: QSVEESGGRLVTPGTPLTLTCTVSGFSLSSYAMSWVRQAPGKGLEWIGIISNSGTTYYASWAKGRFTISKTSTTVDLKITSPTTEDTATYFCARGIYWYWRVFNLWGPGTLVTVSS VL: AVLTQTPSPVSAAVGGTVTINCQASQSVYNNLLSWYQQKPGQPPKLLIYDASNLASGVPDRFSGSGSGTQFTLTISGVQCDDAATYYCLGGYDDDADNAFGGGTEVVVKR | 0.116 nM | 0.169 nM | 
Ab15 (antibody, V domains shown) VH: QEQLEESGGDLVKPEGSLTLTCTASGFSFSSSYWICWVRQAPGKGLEWIACIDAGNSGSTYYASWAKGRFTISKASSTTVTLQMTSLTAADTATYFCASDLNDGWLGQFNLWGPGTLVTVSS VL: NIVMTQTPSPVSGAVGGTVTIKCQASQSISDYLAWYQQKPGQPPKLLIYRASTLASGVPSRFRGSGSGTEYTLTITDLECADAATYYCQSYYSVTTNTYGNTFGGGTEVVVKR |  |  | EC50 (cynomolgus monkey PCSK9 [7]): 0.161 nM
Ab7 (antibody, V domains shown) VH: EVQLVESGGGLVQPGGSLRLSCAASGFTVSSNYWICWVRQAPGKGLEWIGCIRDGGGTYYASSAKGRFTISRDNSKNTLYLQMNSLRAEDTAVYYCASDINDGWLGQFNLWGQGTLVTVSS VL: DIVMTQSPSSLSASVGDRVTIKCQASQSISAYLAWYQQKPGKVPKLLIYRAYTLASGVPSRFSGSGSGTDFTLTISSLQPEDVATYYCQSYYSVTTNTYGNTFGGGTKVEIKR |  | 0.103 nM | EC50 [6]: 0.104 nM
Ab13 (antibody, V domains shown) VH: QSVEESGGRLVTPGTPLTLTCTVSGIDLSTYGVGWVRQAPGKGLEYIGIISSSGSTYYASWAKGRFTISKTSSTTVDLKMTSLTTEDTATYFCARDWSSTTGYYGYFNMWGPGTLVTVSS VL: AFELTQTPSPVSAAVGGTVTIKCQASQSISTALAWYQQKPGQPPKLLIYGASNLESGVPSRFSGSGSGTQFTLTISDLECADAAIYYCQSSYGSSTLAFGGGTEVVVKR |  |  | EC50 [6]: 0.124 nM

— US20130302399A1 (published 2013)
